Molecular target: c-Met receptor (human) (UniProt P08581)
Test: cell-based or functional assay

Chain of UniProt P08581 (P08581 25-1390): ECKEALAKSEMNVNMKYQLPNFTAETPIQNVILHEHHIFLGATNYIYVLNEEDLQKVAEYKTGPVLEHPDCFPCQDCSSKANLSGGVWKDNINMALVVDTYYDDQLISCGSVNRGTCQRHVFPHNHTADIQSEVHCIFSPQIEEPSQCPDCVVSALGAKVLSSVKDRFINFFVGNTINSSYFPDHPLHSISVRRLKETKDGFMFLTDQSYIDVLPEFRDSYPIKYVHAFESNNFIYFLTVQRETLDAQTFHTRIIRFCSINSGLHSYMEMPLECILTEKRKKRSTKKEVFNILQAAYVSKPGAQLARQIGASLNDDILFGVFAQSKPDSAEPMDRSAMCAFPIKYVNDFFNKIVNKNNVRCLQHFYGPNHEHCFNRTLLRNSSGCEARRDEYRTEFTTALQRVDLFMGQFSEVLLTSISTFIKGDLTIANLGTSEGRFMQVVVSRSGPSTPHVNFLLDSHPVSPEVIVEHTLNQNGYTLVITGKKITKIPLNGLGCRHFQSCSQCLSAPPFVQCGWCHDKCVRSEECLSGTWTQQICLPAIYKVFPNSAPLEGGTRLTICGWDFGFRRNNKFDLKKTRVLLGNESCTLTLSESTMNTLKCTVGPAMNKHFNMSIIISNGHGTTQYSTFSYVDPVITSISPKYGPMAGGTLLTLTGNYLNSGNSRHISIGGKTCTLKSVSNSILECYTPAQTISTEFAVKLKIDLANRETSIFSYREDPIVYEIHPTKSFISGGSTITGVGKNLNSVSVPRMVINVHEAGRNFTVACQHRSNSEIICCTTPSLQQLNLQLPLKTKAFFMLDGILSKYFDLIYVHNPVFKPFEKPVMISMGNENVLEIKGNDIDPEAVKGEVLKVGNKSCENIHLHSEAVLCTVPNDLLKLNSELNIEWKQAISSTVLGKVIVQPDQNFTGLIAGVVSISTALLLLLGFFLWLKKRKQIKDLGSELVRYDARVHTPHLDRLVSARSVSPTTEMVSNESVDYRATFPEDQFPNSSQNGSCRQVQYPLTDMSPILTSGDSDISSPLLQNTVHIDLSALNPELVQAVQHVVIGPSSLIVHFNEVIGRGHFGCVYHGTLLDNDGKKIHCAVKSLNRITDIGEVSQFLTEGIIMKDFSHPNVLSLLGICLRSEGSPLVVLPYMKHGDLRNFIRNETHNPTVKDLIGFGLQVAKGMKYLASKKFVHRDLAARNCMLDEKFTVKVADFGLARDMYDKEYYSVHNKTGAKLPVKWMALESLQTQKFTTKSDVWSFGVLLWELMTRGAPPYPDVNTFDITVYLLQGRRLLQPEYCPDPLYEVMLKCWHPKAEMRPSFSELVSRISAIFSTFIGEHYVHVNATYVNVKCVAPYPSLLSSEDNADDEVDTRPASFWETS

Binder	agonist effect on c-Met receptor phosphorylation, A549 cells (phospho-c-Met ELISA) (% of HGF effect)	inhibition of HGF [100 ng/ml]-induced c-Met receptor phosphorylation, A549 cells (% inhibition of HGF effect)	inhibition of HGF-induced proliferation of NCI-H441 cells ([3H]Thymidine)
murine 227H1 Mab (antibody, from another filing, mouse IgG1, V domains shown) VH: EVQLQQSGPELVKPGASMKISCKASGYSFTDYTLNWVKQSHGKTLEWIGLINPYNGGTTYNQKFKGKATLTVDKSSSTAYMELLSLTSEDSAVYYCAREEITKDFDFWGQGTTLTVSS VL: GIVLTQSPASLAVSLGQRATISCRVSESIDTYGNSFIHWYQQKPGQPPKLLIYRASNLESGIPARFSGSGSRTDFTLTINPVEADDSATYYCQQSNEDPFTFGSGTKLEMK	< 5	> 70	80 % inhibition
murine 11E1 Mab (antibody, from another filing, mouse IgG1, V domains shown) VH: QVQLQQSGAELAKPGASVKMSCKASGYTFTSYWMNWVKQRPGQGLEWIGYINPTTGSTDYNQKLKDKATLTADKSSNTAYMQLSSLTSEDSAVYYCAIGGYGSWFAYWGQGTLVTVSA VL: QIVLTQSPAIMSASPGEKVTLTCSASSSVSSTYLYWYQQKPGSSPKLWIYTTSILASGVPARFSGSGSGTSYSLTISSMETEDAASYFCHQWSSYPFTFGSGTKLDIK	< 5	> 70	80 % inhibition

From patent US20110263830A1
